Test results: US20160017055A1 (Takeda / Millennium, published 2016)

Target: T1, plasma kallikrein Mutant 2 (catalytic domain; R551A, Q553A, Y555A, T558A, R560A) (human, UniProt P03952 391-638)
T1 construct: Mutations in a subsite of the active site (printed 'S subsite')
Test: Ki,app; inhibition of PKal catalytic domain activity, Morrison fit
Protocol: Briefly, PKal and a Fab at various concentrations are incubated together for 1 hour at 30° C. A substrate peptide (cleavable by PKal) is then added to this PKal-Fab mixture. The rate of substrate peptide cleavage/proteolysis is then measured, and plotted against the concentrations of the Fab. This plot is then fit to the Morrison equation, which calculates the K_{i,app} value.
The inhibitory activity of X₁₁₅-F02 against the wild-type PKal and the mutants were carried out using the method described in Example 2 above and the K_{i,app} values were determined.

T1 sequence (P03952 391-638 C503S/R551A/Q553A/Y555A/T558A/R560A limits assumed): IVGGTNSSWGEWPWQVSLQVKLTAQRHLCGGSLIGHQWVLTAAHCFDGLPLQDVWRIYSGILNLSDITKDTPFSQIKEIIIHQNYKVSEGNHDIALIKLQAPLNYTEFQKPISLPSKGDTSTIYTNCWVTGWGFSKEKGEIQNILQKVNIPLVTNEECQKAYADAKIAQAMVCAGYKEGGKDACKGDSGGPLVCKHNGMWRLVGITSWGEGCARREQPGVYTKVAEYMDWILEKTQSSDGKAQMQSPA

B1: X115-F02 (antibody, human IgG1, kappa, V domains shown)
VH: EVQLLESGGGLVQPGGSLRLSCAASGFTFSHYIMMWVRQAPGKGLEWVSGIYSSGGITVYADSVKGRFTISRDNSKNTLYLQMNSLRAEDTAVYYCAYRRIGVPRRDEFDIWGQGTMVTVSS
VL: DIQMTQSPSTLSASVGDRVTITCRASQSISSWLAWYQQKPGKAPKLLIYKASTLESGVPSRFSGSGSGTEFTLTISSLQPDDFATYYCQQYNTYWTFGQGTKVEIKR
How did the “fold reduction of inhibitory potency (Ki,app) against wild-type PKal” value turn out when B1 was run?
Its value is ~65 fold.
